Reference: FireProtDB (doi:10.1038/s41598-019-41819-5)
Several values for one entry are separate records, joined by “and”; a condition that tells them apart may be missing. Equal values may be shown once.

B1: Forkhead box protein P1, Q9H334 (parent)
chain: MMQESGTETKSNGSAIQNGSGGSNHLLECGGLREGRSNGETPAVDIGAADLAHAQQQQQQALQVARQLLLQQQQQQQVSGLKSPKRNDKQPALQVPVSVAMMTPQVITPQQMQQILQQQVLSPQQLQVLLQQQQALMLQQQQLQEFYKKQQEQLQLQLLQQQHAGKQPKEQQQVATQQLAFQQQLLQMQQLQQQHLLSLQRQGLLTIQPGQPALPLQPLAQGMIPTELQQLWKEVTSAHTAEETTGNNHSSLDLTTTCVSSSAPSKTSLIMNPHASTNGQLSVHTPKRESLSHEEHPHSHPLYGHGVCKWPGCEAVCEDFQSFLKHLNSEHALDDRSTAQCRVQMQVVQQLELQLAKDKERLQAMMTHLHVKSTEPKAAPQPLNLVSSVTLSKSASEASPQSLPHTPTTPTAPLTPVTQGPSVITTTSMHTVGPIRRRYSDKYNVPISSADIAQNQEFYKNAEVRPPFTYASLIRQAILESPEKQLTLNEIYNWFTRMFAYFRRNAATWKNAVRHNLSLHKCFVRVENVKGAVWTVDEVEFQKRRPQKISGNPSLIKNMQSSHAYCTPLNAALQASMAENSIPLYTTASMGNPTLGNLASAIREELNGAMEHTNSNESDSSPGRSPMQAVHPVHVKEEPLDPEEAEGPLSLVTTANHSPDFDHDRDYEDEPVNEDME

Variants of: B1
Settings: Homo sapiens, 37 °C, GdnHCl, fluorescence, transition: 3, structure 2KIU, whole UniProt chain shown

Row | Variant | denaturant m value (pH 5) | denaturant m value (pH 7.8) | unfolding free energy (pH 5) | unfolding free energy (pH 7.8) [kcal/mol]
1 | S518C | 3.2 kcal/mol/M and 1.4 kcal/mol/M | 2.7 kcal/mol/M and 2 kcal/mol/M | – | –
2 | H520A | 5.8 kcal/mol/M | 6.6 kcal/mol/M | 17.9 kcal/mol | 20.2
3 | V539C | 3.1 kcal/mol/M and 1.1 kcal/mol/M | – | 1.4 kcal/mol and 4.2 kcal/mol | –
